From patent publication US20180155693A1, “Method of Differentiating Stem Cells” (BioTime, Inc., priority 2008, published 2018)

Legend:
[1] = tested on: human embryonic stem cells; assay: Notch signaling inhibition, C-peptide positive cells by immunohistochemistry; format: cell-based; settings: added day 9-18 of differentiation; cells fixed at day 21; FIG. 7
Procedure: In order to increase the percentage of Pdx-1 and C-peptide producing cells, the cells from Example 1 were rinsed twice with PBS and then cultured in a culture medium (2% 8-27, 1×Glutamax, 1×NEAA, 1×13-mercaptoethanol in RPMI 1640 (RPMI)) comprising 50 ng/ml Activin A and 50 ng/ml BMP4 for 3 days. The medium was then changed to a medium comprising 50 ng/ml Activin A in RPMI and incubated for 3 days. The cells were then cultured in a medium comprising 3 μM RA, 50 ng/ml FGF2, 1 μM SANT-1 and 10 mM Nicotinamide in RPMI for 6 days with the medium changed every 2-3 days. Notch signaling in the cells was then inhibited by the addition of Gamma Secretase Inhibitor X (DAPT) from day 9-18 of differentiation.
Plate-based immunohistochemistry was performed using standard techniques. Cells were fixed in 4% PFA in PBS for 30 min, washed with PBS and incubated in blocking solution consisting of 10% FCS and 0.1% Triton X-100 in PBS for 1 hr. Cells were incubated overnight at 4 ° C. with the primary antibody diluted in blocking solution. Examples of primary antibodies and their dilutions used include: guinea pig anti-Pdx-1 (1:10,000), rabbit anti-C-peptide (Linea, 1:1,000), goat anti-Sox17 (R & D systems, 1:100), goat anti-FoxA2 (R & D systems 1:100) and mouse anti-Oct4 (Santacruz, 1:100). […]

[2] = cited from earlier work
[3] = tested on: ESI035, ESI049, ESI051 and HES-3; assay: Effect of early growth factors, Pdx-1 RT-PCR; format: cell-based, human; settings: day 18; early factors per Table 2; compared to cells only treated with Activin A; FIG. 5
From the text: The effect of early differentiation factors was examined by differentiating cell lines ESI035, ESI049, ESI051 and HES-3 in 24-well plates in six varying cultures and harvesting them for analysis using immunohistochemistry and Quantitative RT-PCR analysis on day 18 and day 30 of differentiation. The culture medium (1×Glutamax, 1×NEAA, 1×13-mercaptoethanol in RPMI 1640 (RPMI)) was supplemented with other factors summarized in table 2 below. The medium was changed every 2-3 days.
As the effect of FGF2 as an early growth factor varied depending on the cell line used, no conclusion was derived with regard to the effect of an early dose of FGF2 on the expression of Pdx-1.
(§1) Total RNA from hESC at various stages of differentiation was isolated using the Qiagen RNeasy kit […] according to the manufacturer's instructions. RNA was quantified by UV absorption. 1 to 5 μg of RNA was DNase I treated and converted to cDNA using M-MuIV reverse transcriptase (New England Biolabs) using random hexamer primers according to the manufacturer's instructions. Quantitative PCR (RT-PCR) was performed according to the manufacturer's instructions using a BioRad iCycler with approximately 50 ng cDNA per reaction containing 250 nM of each primer and 1×SYBR green master mix (Bio-Rad) and analyzed by Bio-RAD thermocycler.

[4] = tested on: mix of cell lines, ESI017 and ESI035; assay: Definitive endoderm time course, real-time PCR of Sox17 and FoxA2; format: cell-based, human
Procedure: The effects of Activin A with and without BMP4 on the expression of markers of definitive endoderm were examined. Activin A and BMP4 were added to a mix of cell lines, ESI017 and ESI035, of Example 1 after the cells had been washed twice with PBS. Four groups of cells were then cultured in four different conditions:
1) 50 ng/ml Activin A and 50 ng/ml BMP4 in a culture medium (2% B-27, 1×Glutamax, 1×NEAA, 1×J3-mercaptoethanol in RPMI 1640 (RPMI)) for 3 days followed by treatment with Activin A (50 ng/ml) in RPMI.
2) 50 ng/ml Activin A and 50 ng/ml BMP4 in RPMI for about 6 hours followed by treatment with Activin A (50 ng/ml) in RPMI.
3) 50 ng/ml Activin A in RPMI.
4) 10% KOSR in RPMI (negative control).
The cells were cultured continuously and a sample harvested daily. The medium was changed every 2-3 days. Real-time PCR was performed as described in Example 9.
as §1, with “1 to 5 μg of RNA was DNase I treated and converted to cDNA using M-MuIV reverse transcriptase (New England Biolabs) using random hexamer primers according to the manufacturer's instructions.” left out

[5] = tested on: ESI035, ESI049 and ESI051; assay: Screen of maturation growth factors, immunohistochemistry for C-peptide and Pdx-1; format: cell-based, human; settings: day 18
From the text: The effect of maturation growth factors was examined by differentiating cell lines ESI035, ESI049 and ES1051 from Example 1 in 96-well plates in two varying cultures and harvesting them for analysis using immunohistochemistry on day 18 of differentiation. The culture medium (1×Glutamax, 1×NEAA, 1×f3-mercaptoethanol in RPMI 1640 (RPMI)) were supplemented with other factors summarized in Table 4 below. The notable changes to the differentiation protocol used here compared to that used in Example 4 were the shortened period of endoderm induction and the addition of nicotinamide from day 6 of differentiation. The medium was changed every 2-3 days. A list of growth factors (G.F) were tested according to the protocol described in Table 4. […] There were added at two time points. […] None of the added growth factors had any consistent effect on cell viability, C-peptide expression and Pdx-1 expression. Plate-based immunohistochemistry was performed using standard techniques. Cells were fixed in 4% PFA in PBS for 30 min, washed with PBS and incubated in blocking solution consisting of 10% FCS and 0.1% Triton X-100 in PBS for 1 hr. Cells were incubated overnight at 4 ° C. with the primary antibody diluted in blocking solution. […]

## CC(C)C[C@H](NC(=O)[C@H](Cc1ccccc1)C[C@@H](O)[C@H](Cc1ccccc1)NC(=O)OC(C)(C)C)C(=O)N[C@@H](Cc1ccccc1)C(N)=O [Gamma Secretase Inhibitor X]
[1]
  Concentration resulting in a significant number of C-peptide positive cells: over 10 μM

## C-peptide
[2]
  half-life: about 30 minutes

## FGF2: member of the FGF family
[3]
  Pdx-1 expression (RT-PCR): did not result in the same effect on Pdx-1 expression in all four cell lines

B1: Activin A: protein of the TGF-superfamily (protein, UniProt P08476 311-426, looked up)
Inhibin beta A chain: GLECDGKVNICCKKQFFVSFKDIGWNDWIIAPSGYHANYCEGECPSHIAGTSGSSLSFHSTVINHYRMRGHSPFANLKSCCVPTKLRPMSMLYYDDGQNIIKKDIQNMIVEECGCS
modifications: Inhibin beta A chain
notes: protein of the TGF-superfamily
[4]; 50 ng/ml each in RPMI, daily samples, FIG. 2A
  expression of Sox17 mRNA: weak expression of Sox17 until day 6

B2: BMP4: secreted polypeptide belonging to the BMP subgroup of the TGF-superfamily (protein, UniProt P12644 293-408, looked up)
Bone morphogenetic protein 4: SPKHHSQRARKKNKNCRRHSLYVDFSDVGWNDWIVAPPGYQAFYCHGDCPFPLADHLNSTNHAIVQTLVNSVNSSIPKACCVPTELSAISMLYLDEYDKVVLKNYQEMVVEGCGCR
[5]; BMP4 treated plates compared to plates not BMP4 treated
  Pdx-1 positive cells: more Pdx-1 positive cells
[5]; initially cultured in medium comprising BMP4 vs Activin only
  frequency of C-peptide positive cells: higher frequency of C-peptide positive cells
[4]; addition of 50 ng/ml BMP4 to Activin A, up to day 10, FIG. 2B
  FoxA2 expression: did not appear to greatly affect FoxA2 expression
